Laboratory results taken from US10227388B2, “Peptides and combination of peptides for use in immunotherapy against non-small cell lung cancer and other cancers” (immatics biotechnologies GmbH, priority 2015, dated 2019).

Target: HLA-A*02:01 (Homo sapiens, UniProt P04439, D140Y/D185E/D98H/E176V/E277Q/G131W/G231S/I119V/I121R/I166T/I218V/L300P/L318F/N151K/N90K/P208A/P217A/Q86G/Q94H/R138H/R169H/T345S)
Assay: MHC binding assay (UV-ligand exchange, ELISA, peptide exchange yield)
Settings: binding of HLA-class I restricted peptides to HLA-A*02:01
Method in brief: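 Peptide–HLA-A*02:01 complexes made by UV-ligand exchange of a UV-cleavable peptide for the test peptide. Exchange yield measured by ELISA: 100-fold diluted monomers captured on streptavidin, 1 h at 37° C., detected with HRP anti-β2m and TMB, absorbance at 450 nm.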

## 240 (ILLEQAFYL; listed as Homo sapiens) [compound 240]
  Peptide exchange (MHC class I binding score, peptide exchange yield): ″+++″ (≥50% = +++)

## 317 (SLAALVVHV; listed as Homo sapiens) [compound 317]
  Peptide exchange (MHC class I binding score, peptide exchange yield): ″+++″ (≥50% = +++)

## 620 (KLLNKIYEA; listed as Homo sapiens) [compound 620]
  Peptide exchange (MHC class I binding score, peptide exchange yield): ″++++″ (≥75% = ++++)

## 54 (SLLEQGKEPWMV; listed as Homo sapiens) [compound 54]
  Peptide exchange (MHC class I binding score, peptide exchange yield): ″+++″ (≥50% = +++)

## 492 (SLFDGFADGLGV; listed as Homo sapiens) [compound 492]
  Peptide exchange (MHC class I binding score, peptide exchange yield): ″+++″ (≥50% = +++)

## 589 (KLYPQLPAEI; listed as Homo sapiens) [compound 589]
  Peptide exchange (MHC class I binding score, peptide exchange yield): ″+++″ (≥50% = +++)

## 456 (LLIGHLERV; listed as Homo sapiens) [compound 456]
  Peptide exchange (MHC class I binding score, peptide exchange yield): ″+++″ (≥50% = +++)

## 477 (ALLPASGQIAL; listed as Homo sapiens) [compound 477]
  Peptide exchange (MHC class I binding score, peptide exchange yield): ″+++″ (≥50% = +++)

## 154 (ALDDGTPAL; listed as Homo sapiens) [compound 154]
  Peptide exchange (MHC class I binding score, peptide exchange yield): ″++″ (≥20% = ++)

## 195 (GLFADLLPRL; listed as Homo sapiens) [compound 195]
  Peptide exchange (MHC class I binding score, peptide exchange yield): ″+++″ (≥50% = +++)

## 130 (FLWNGEDSALL; listed as Homo sapiens) [compound 130]
  Peptide exchange (MHC class I binding score, peptide exchange yield): ″+++″ (≥50% = +++)

## 370 (SLLQDLVSV; listed as Homo sapiens) [compound 370]
  Peptide exchange (MHC class I binding score, peptide exchange yield): ″+++″ (≥50% = +++)

## 315 (YLQDVVEQA; listed as Homo sapiens) [compound 315]
  Peptide exchange (MHC class I binding score, peptide exchange yield): ″+++″ (≥50% = +++)

## 224 (TLIDAQWVL; listed as Homo sapiens) [compound 224]
  Peptide exchange (MHC class I binding score, peptide exchange yield): ″+++″ (≥50% = +++)

## 170 (RLQETLSAA; listed as Homo sapiens) [compound 170]
  Peptide exchange (MHC class I binding score, peptide exchange yield): ″+++″ (≥50% = +++)

## 395 (ALALGGIAVV; listed as Homo sapiens) [compound 395]
  Peptide exchange (MHC class I binding score, peptide exchange yield): ″++++″ (≥75% = ++++)

## 602 (YLLEQIKLIEV; listed as Homo sapiens) [compound 602]
  Peptide exchange (MHC class I binding score, peptide exchange yield): ″++++″ (≥75% = ++++)

## 104 (STMEQNFLL; listed as Homo sapiens) [compound 104]
  Peptide exchange (MHC class I binding score, peptide exchange yield): ″++++″ (≥75% = ++++)

## 75 (GLLEVMVNL; listed as Homo sapiens) [compound 75]
  Peptide exchange (MHC class I binding score, peptide exchange yield): ″+++″ (≥50% = +++)

## 192 (KMLDGASFTL; listed as Homo sapiens) [compound 192]
  Peptide exchange (MHC class I binding score, peptide exchange yield): ″+++″ (≥50% = +++)

## 128 (YLFDDPLSAV; listed as Homo sapiens) [compound 128]
  Peptide exchange (MHC class I binding score, peptide exchange yield): ″++″ (≥20% = ++)

## 92 (YLIPFTGIVGL; listed as Homo sapiens) [compound 92]
  Peptide exchange (MHC class I binding score, peptide exchange yield): ″++″ (≥20% = ++)

## 21 (VLDELDMEL; listed as Homo sapiens) [compound 21]
  Peptide exchange (MHC class I binding score, peptide exchange yield): ″++″ (≥20% = ++)

## 44 (ILDPISSGFLL; listed as Homo sapiens) [compound 44]
  Peptide exchange (MHC class I binding score, peptide exchange yield): ″++″ (≥20% = ++)

## 168 (KILDADIQL; listed as Homo sapiens) [compound 168]
  Peptide exchange (MHC class I binding score, peptide exchange yield): ″++++″ (≥75% = ++++)

## 343 (SLLEVNEESTV; listed as Homo sapiens) [compound 343]
  Peptide exchange (MHC class I binding score, peptide exchange yield): ″+++″ (≥50% = +++)

## 89 (YILPTETIYV; listed as Homo sapiens) [compound 89]
  Peptide exchange (MHC class I binding score, peptide exchange yield): ″++++″ (≥75% = ++++)

## 52 (FLLAHGLGFLL; listed as Homo sapiens) [compound 52]
  Peptide exchange (MHC class I binding score, peptide exchange yield): ″++++″ (≥75% = ++++)

## 127 (KIGDEPPKV; listed as Homo sapiens) [compound 127]
  Peptide exchange (MHC class I binding score, peptide exchange yield): ″++″ (≥20% = ++)

## 622 (RLLGEEVVRVLQA; listed as Homo sapiens) [compound 622]
  Peptide exchange (MHC class I binding score, peptide exchange yield): ″+++″ (≥50% = +++)

## 326 (FLPEALDFV; listed as Homo sapiens) [compound 326]
  Peptide exchange (MHC class I binding score, peptide exchange yield): ″+++″ (≥50% = +++)

## 171 (LLLPLQILL; listed as Homo sapiens) [compound 171]
  Peptide exchange (MHC class I binding score, peptide exchange yield): ″+++″ (≥50% = +++)

## 466 (VLIANLEKL; listed as Homo sapiens) [compound 466]
  Peptide exchange (MHC class I binding score, peptide exchange yield): ″++++″ (≥75% = ++++)

## 400 (SLLTEQDLWTV; listed as Homo sapiens) [compound 400]
  Peptide exchange (MHC class I binding score, peptide exchange yield): ″++″ (≥20% = ++)

## 256 (FLPPEHTIVYI; listed as Homo sapiens) [compound 256]
  Peptide exchange (MHC class I binding score, peptide exchange yield): ″+++″ (≥50% = +++)

## 391 (YVYPQRLNFV; listed as Homo sapiens) [compound 391]
  Peptide exchange (MHC class I binding score, peptide exchange yield): ″+++″ (≥50% = +++)

## 382 (ALQNYIKEA; listed as Homo sapiens) [compound 382]
  Peptide exchange (MHC class I binding score, peptide exchange yield): ″++″ (≥20% = ++)

## 169 (NLPEYLPFV; listed as Homo sapiens) [compound 169]
  Peptide exchange (MHC class I binding score, peptide exchange yield): ″+++″ (≥50% = +++)

## 51 (LLPDLEFYV; listed as Homo sapiens) [compound 51]
  Peptide exchange (MHC class I binding score, peptide exchange yield): ″++++″ (≥75% = ++++)

## 369 (GLFPEHLIDV; listed as Homo sapiens) [compound 369]
  Peptide exchange (MHC class I binding score, peptide exchange yield): ″+++″ (≥50% = +++)

## 96 (YIFTDNPAAV; listed as Homo sapiens) [compound 96]
  Peptide exchange (MHC class I binding score, peptide exchange yield): ″+++″ (≥50% = +++)

## 481 (GLIEDYEALL; listed as Homo sapiens) [compound 481]
  Peptide exchange (MHC class I binding score, peptide exchange yield): ″+++″ (≥50% = +++)

## 183 (FGLDLVTEL; listed as Homo sapiens) [compound 183]
  Peptide exchange (MHC class I binding score, peptide exchange yield): ″+++″ (≥50% = +++)

## 538 (LLLAHIIAL; listed as Homo sapiens) [compound 538]
  Peptide exchange (MHC class I binding score, peptide exchange yield): ″++″ (≥20% = ++)

## 471 (YLYNNMIAKI; listed as Homo sapiens) [compound 471]
  Peptide exchange (MHC class I binding score, peptide exchange yield): ″+++″ (≥50% = +++)

## 144 (YIMEPSIFNTL; listed as Homo sapiens) [compound 144]
  Peptide exchange (MHC class I binding score, peptide exchange yield): ″+++″ (≥50% = +++)

## 251 (ALYTGFSILV; listed as Homo sapiens) [compound 251]
  Peptide exchange (MHC class I binding score, peptide exchange yield): ″++″ (≥20% = ++)

## 221 (ALYEEGLLL; listed as Homo sapiens) [compound 221]
  Peptide exchange (MHC class I binding score, peptide exchange yield): ″++″ (≥20% = ++)

## 578 (FLDPGGPMMKL; listed as Homo sapiens) [compound 578]
  Peptide exchange (MHC class I binding score, peptide exchange yield): ″+++″ (≥50% = +++)

## 95 (SVIPQIQKV; listed as Homo sapiens) [compound 95]
  Peptide exchange (MHC class I binding score, peptide exchange yield): ″+++″ (≥50% = +++)

## 556 (FLTDLEDLTL; listed as Homo sapiens) [compound 556]
  Peptide exchange (MHC class I binding score, peptide exchange yield): ″+++″ (≥50% = +++)

## 621 (VLMDRLPSLL; listed as Homo sapiens) [compound 621]
  Peptide exchange (MHC class I binding score, peptide exchange yield): ″++++″ (≥75% = ++++)

## 311 (RLYTGMHTV; listed as Homo sapiens) [compound 311]
  Peptide exchange (MHC class I binding score, peptide exchange yield): ″+++″ (≥50% = +++)

## 510 (KLYSVVSQL; listed as Homo sapiens) [compound 510]
  Peptide exchange (MHC class I binding score, peptide exchange yield): ″++″ (≥20% = ++)

## 346 (LLDSKVPSV; listed as Homo sapiens) [compound 346]
  Peptide exchange (MHC class I binding score, peptide exchange yield): ″+++″ (≥50% = +++)

## 551 (KLYESLLPFA; listed as Homo sapiens) [compound 551]
  Peptide exchange (MHC class I binding score, peptide exchange yield): ″+++″ (≥50% = +++)

## 590 (SLIEKLWQT; listed as Homo sapiens) [compound 590]
  Peptide exchange (MHC class I binding score, peptide exchange yield): ″++″ (≥20% = ++)

## 373 (SLLEDKGLAEV; listed as Homo sapiens) [compound 373]
  Peptide exchange (MHC class I binding score, peptide exchange yield): ″++″ (≥20% = ++)

## 309 (GLFDGVPTTA; listed as Homo sapiens) [compound 309]
  Peptide exchange (MHC class I binding score, peptide exchange yield): ″+++″ (≥50% = +++)

## 200 (LLFGSVQEV; listed as Homo sapiens) [compound 200]
  Peptide exchange (MHC class I binding score, peptide exchange yield): ″+++″ (≥50% = +++)

## 350 (ALLDVTHSELTV; listed as Homo sapiens) [compound 350]
  Peptide exchange (MHC class I binding score, peptide exchange yield): ″+++″ (≥50% = +++)
